Amyloid nucleation score data for 141 substances are collected here from the supplement of paper PMC12042874.

± gives the uncertainty stated by the source.

The data set in a line: amyloid nucleation score (Sup35N fusion, yeast selection) (log enrichment); library NNK2; higher = more nucleation; inactive = no reads after selection. A digest of the protocol: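 Growth for 7 days at 30°C on medium lacking adenine and uracil followed a 24-hour induction with 100 μM copper sulfate of psi-negative yeast expressing peptides of 20 random codons fused to Sup35N. Input and output plasmid inserts were sequenced with Illumina, and sequences with under 100 input reads were excluded. Nucleation score is the DiMSum log enrichment of output over input reads, centred on the mode score of non-aggregating sequences.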

For TVMGPVILTCVGIAVTSASS, the amyloid nucleation score was 3.86 ± 0.1. HRVRSDDLVKAWPQWNALGA showed an amyloid nucleation score of 1.18 ± 0.12. The substance LIIDSGYPSGS registered an amyloid nucleation score of 0.458 ± 0.8.

On to SSFCNISAAGYFHIVMLRVV, for which the amyloid nucleation score was -0.3 ± 0.5. TTRAKHVHWYELHNVFMLQL returned an amyloid nucleation score of 7.483 ± 0.054.

Regarding SLYDGRVVRMYSRH, the amyloid nucleation score turned out to be 2.65 ± 0.1.

Substance TILVTKG yielded an amyloid nucleation score of 4.89 ± 0.11. For the substance FDIPCSFVPVYHIKAFLCRM, the amyloid nucleation score is -0.353 ± 0.79.

As for KYMCSLMEATFLYNGSALRC, the amyloid nucleation score was -1.6 ± 1.1. Consider LCKYDGCMIAYGVLHSSSAG, for which the amyloid nucleation score amounted to 0.651 ± 0.26. For the substance DYLSIFDYHDMMGQNFL, the amyloid nucleation score is -0.151 ± 0.49. As to RVNSIAFI, the amyloid nucleation score is -0.701 ± 0.56. RMSVWNNECTWTSSVSVHPK came in with an amyloid nucleation score of 2.37 ± 0.1. The same measure for SVTRWEHAMAVPKKLLHSGR: 1.05 ± 0.23; for NGVCQNCR: “inactive”; for AYWVQGCLLQMRMT: 0.891 ± 0.22. The substance VKAWYWLKARFVLWTVGARL showed an amyloid nucleation score of -0.093 ± 0.79. The substance VTVTFIAEHSIWPSVNNCFV gave an amyloid nucleation score of 1.71 ± 0.15. On to IIYNKSW, for which the amyloid nucleation score turned out to be 2.77 ± 0.094. Consider HVYYTVNLVLVNLYPLYFFT, for which the amyloid nucleation score was found to be 5.855 ± 0.041. Turning to TLCWLYLWVYRCKDYEELTC, the amyloid nucleation score was -0.167 ± 0.63. LYHVISSNWHEDNDMT: the amyloid nucleation score was found to be 0.003 ± 0.23. The substance ISNLQGFLLQNSDLAHSWVA came in with an amyloid nucleation score of 1.28 ± 0.15. Turning to TGRGAHFHRI, the amyloid nucleation score is -0.24 ± 0.42.

For GPDSLLGFMSAHNWSAKVYP, the amyloid nucleation score is 0.209 ± 0.44. In the case of YFYNGWRERARSEQCNHRT, the amyloid nucleation score was determined as 0.441 ± 0.43. RAEVNA registered an amyloid nucleation score of 0.517 ± 0.26.

For SFGMQTEMYPGSIGLV, the amyloid nucleation score result is “inactive”. The same measure for CLPETLVDFWFKAHDAFNFV: “inactive”. CPSVSSRSRELSLLTDQEVI: the amyloid nucleation score came out at 0.812 ± 0.4.

In turn, RQLLTKCLCASTGGFIFSWD had an amyloid nucleation score of 0.792 ± 0.8.

In the case of FRIKAEVGPIYTYDTGSFNW, the amyloid nucleation score is -0.162 ± 0.27. The result for MYIGVL reads -0.065 ± 0.45. The same measure for RTCDDA: 0.294 ± 0.8; for SCLSGFTIWQVSLRYCASFG: 0.312 ± 0.38; for EDHSGF: -1.15 ± 0.28. For TFDRCPNNSGNDMTNGPESW, the amyloid nucleation score worked out at 1.21 ± 0.096.

As for KAVVMLI, the amyloid nucleation score is -1.09 ± 0.31. Regarding NVLQLDPFFAYSVRCILGSE, the amyloid nucleation score result was “inactive”. Substance TVSLYIDYPSVLGFPWSY showed an amyloid nucleation score of -0.952 ± 0.55. VWGWD came in with an amyloid nucleation score of -0.517 ± 0.78. Take YNSVELYFACLFLAHAVLVY: the amyloid nucleation score entry was “inactive”. In the case of LLYIDLVVHVFQSGSSGRLL, the amyloid nucleation score came out at 2.79 ± 0.083. The same measure for FGVHVRCSEDDMAFALDLD: 0.155 ± 0.28; for RRDHHMPPITPGCFRLYWRI: 0.237 ± 1; for WSWGGHAVMFY: -0.424 ± 1.1. Consider KYFIASLDQFSYISVHNEVV, for which the amyloid nucleation score entry was “inactive”. VIRYINSEDFRTGREFTRGV displayed an amyloid nucleation score of -1.68 ± 0.78. KLVISAFPPIRNMVYTKCSK displayed an amyloid nucleation score of -0.446 ± 1.1. Regarding NPYTCMKTHYNRRNI, the amyloid nucleation score is 3.41 ± 0.15.

In the case of IMHCVHKSRILSSVTKIKEP, the amyloid nucleation score result is “inactive”. As for STVFYMNLQGVFRTVSWV, the amyloid nucleation score amounted to 2.8 ± 0.18. The same measure for LDVPARSMCFY: -0.761 ± 0.61; for GLFRWYNMDNYVQI: -0.604 ± 0.76; for MMGLGKCR: 1.36 ± 0.33.

In turn, IIPQNSQDQNRDISVKAFSV yielded an amyloid nucleation score of -0.937 ± 0.61. RYFDDWVNSRTVKCGWDWYA: the amyloid nucleation score was found to be 0.641 ± 0.17. Substance RYPVDRLVMSKRCPALRDGG displayed an amyloid nucleation score of 0.652 ± 0.23. In the case of MSNRVCCNYVGSHVRYCVSK, the amyloid nucleation score came out at 4.913 ± 0.048. Substance DVFVDMGMLTPKRCRARRGV came in with an amyloid nucleation score of 0.883 ± 0.34. As to WSTASSVLIICIQRFF, the amyloid nucleation score result is “inactive”. For GVVNLTD, the amyloid nucleation score came to 3.01 ± 0.061.

In turn, LEGGGGFSRAL had an amyloid nucleation score of -0.651 ± 1.1. In the case of TKICMASHATVFALYVYCSL, the amyloid nucleation score entry is “inactive”. For LQYIY, the amyloid nucleation score was -0.533 ± 0.78. The result for TGLTH reads -0.737 ± 0.54; that for MSVLRSG, 0.526 ± 0.66; that for VGLFNVTLAFVLYGSSRLVL, 4.12 ± 0.057.

SMYSSASMQWSDRFNILYEV displayed an amyloid nucleation score of -0.291 ± 0.31. Take QYQKIIWISCSIPMQMTISA: the amyloid nucleation score was -0.097 ± 1.1. Substance KLGIDRGTVCLWLSV showed an amyloid nucleation score of 0.401 ± 0.14. RIKYG returned an amyloid nucleation score of 4.05 ± 0.065. Turning to ALFRD, the amyloid nucleation score was determined as 0.066 ± 1.

Substance ISFYFSAWDKTVQTRRYIDH showed an amyloid nucleation score of -0.356 ± 0.33. As to HCSFCVIVGFNRCDALGSHR, the amyloid nucleation score stood at 7.03 ± 0.075. Substance DSCRGMVSFCG came in with an amyloid nucleation score of -0.399 ± 0.35. In turn, GINCRGAIR displayed an amyloid nucleation score of -0.345 ± 0.26. CILLGSWLVNFYVWWSRMPI came in with an amyloid nucleation score of -0.031 ± 1. Substance IHRGWSWMQSRILDVGSR yielded an amyloid nucleation score of 0.162 ± 0.54.

Regarding VLSTWWVSYAGTVFVRSEGT, the amyloid nucleation score came out at 3.58 ± 0.14.

For FCWFRLLEYFSR, the amyloid nucleation score is -0.201 ± 0.45. In the case of WNSIYGLAEMQVCWWFGWGC, the amyloid nucleation score was -0.628 ± 0.41. Consider MSYVLMVFASPIMYVTHPIA, for which the amyloid nucleation score worked out at 1.89 ± 0.2. The result for FGTYSI reads 0.389 ± 0.74. On to SMHGSNVIWESFILRQEHDV, for which the amyloid nucleation score was -0.268 ± 0.31. Consider NRVVHFISIFGFMNS, for which the amyloid nucleation score came to 3.6 ± 0.098. As to HETLQASIFVLLIHTKYHES, the amyloid nucleation score is -1.58 ± 1. With MLYYTCTQQHTDFLRCF, the amyloid nucleation score is -0.391 ± 0.32. For the substance NIAKSEILRIWNWW, the amyloid nucleation score result is “inactive”. In the case of LSTLLFRIYGLPS, the amyloid nucleation score is -2.12 ± 0.49.

Substance WSKQKVAT came in with an amyloid nucleation score of 0.814 ± 0.21. WWWPSVWTCRM registered an amyloid nucleation score of -0.716 ± 0.78.

Consider LYYLFSKFILRDETSSSQKK, for which the amyloid nucleation score entry is “inactive”. As to NNATLGQAFSRQ, the amyloid nucleation score amounted to 0.542 ± 0.17. Substance NNTNIECSWWIYVWSRHNNR displayed an amyloid nucleation score of 5.99 ± 0.061. On to DLKVWAWKLILFGIMDLGGH, for which the amyloid nucleation score was 3.89 ± 0.048. The result for YKWSQASTNGHARISSAQQS reads 2.46 ± 0.11; that for ELRSLAGIVSWLSLRYPPTE, 2.42 ± 0.23; that for VGICFDNRMVTWHLSDRQSP, 3.58 ± 0.072. CFFRKMPHCRLTTWRRVASI yielded an amyloid nucleation score of 0.675 ± 0.25. Consider KFPYVHLVFLARIYSF, for which the amyloid nucleation score was -0.536 ± 1.1. The result for GRVKTYTVGFVNIIHFSWLG reads 3.57 ± 0.053. In turn, GFDLNFRYA showed an amyloid nucleation score of 4.43 ± 0.077. Regarding PICLPVNMLVFKSMNSN, the amyloid nucleation score came out at 2.28 ± 0.073. As to LLKVF, the amyloid nucleation score was -1.01 ± 1.1.

With IEQVRDECHYTDVATLIEMM, the amyloid nucleation score was 0.675 ± 0.24. As to NYITSSVCFCCSDPMYTPSR, the amyloid nucleation score came to 8.552 ± 0.031.

With NQSESFHGLDHFTRNHGGCR, the amyloid nucleation score entry is “inactive”. As to RYMCGRGHRCF, the amyloid nucleation score was determined as 3.04 ± 0.087. Substance QSPNHVHSLRPGLDQLSALP returned an amyloid nucleation score of -0.08 ± 0.39. As for PDGTVYDGYSFCSVS, the amyloid nucleation score was -0.615 ± 0.63. On to LVTKSAGLKGGLMRGDRSRK, for which the amyloid nucleation score turned out to be 0.585 ± 0.37. With SMFSRRNIQKSCFCYWNRLC, the amyloid nucleation score is -0.418 ± 1.1. The same measure for TQLIVMCHFVVHRRVKWRI: 0.786 ± 0.3. Substance GDRYSSYSRFEEY came in with an amyloid nucleation score of 0.565 ± 0.19. The result for CRRVIAESFYDTSLSCSAVG reads 0.877 ± 0.47; that for ERNCISYHKGIFDNNEC, “inactive”. NYFSTDMGFCLRDTYCRCEI returned an amyloid nucleation score of 4.68 ± 0.089. In turn, RSTLDQRRFGNRF registered an amyloid nucleation score of 0.063 ± 1.1. In turn, TEDDCGK gave an amyloid nucleation score of 0.975 ± 0.17.

As for RVRERIQIYLLLSGQDQFKM, the amyloid nucleation score came out at 3.6 ± 0.14.

MVQPS gave an amyloid nucleation score of 0.462 ± 0.5.

AVELGSGGALSRDKLQGQDG: the amyloid nucleation score came out at 0.791 ± 0.74. Turning to TIFFMGM, the amyloid nucleation score came to 3.65 ± 0.07. On to REWEVCGDCLVGNNGWFRWV, for which the amyloid nucleation score came to 0.409 ± 0.47. Regarding LFFDTCRIPRSYWSCLEEES, the amyloid nucleation score is -0.206 ± 0.42. As to MCCGCVNVFFMHARHVLGWS, the amyloid nucleation score was 8.977 ± 0.038.

Take SREYHSCKCQMLYMSQWSKG: the amyloid nucleation score was -0.787 ± 0.55. The same measure for WFRRQSLGWVRANGPVMRIS: 0.035 ± 0.34. VFFGLWRIVRGETSHFYRDE: the amyloid nucleation score is -0.835 ± 0.27. LCNGKAPCFKLCIRCLVGLW displayed an amyloid nucleation score of 2.82 ± 0.13. Consider WRVLFQDFRCKINYLGSSSR, for which the amyloid nucleation score result was “inactive”. The same measure for KILFPVR: -0.927 ± 1. On to RMPGWY, for which the amyloid nucleation score result is “inactive”. The result for NGLSSSTWGPWMYCWCVNMV reads 8.751 ± 0.057; that for TLMFVKNFDVRCEWEASFTM, 5.37 ± 0.077. As to SRLTS, the amyloid nucleation score was 2.32 ± 0.066. In the case of IIDYFSN, the amyloid nucleation score is -0.953 ± 1.1.

Substance NFGADVDRFNRVEGSSDFHG displayed an amyloid nucleation score of 0.285 ± 0.54. Regarding SRTAWVDLPDCWQVVKFGSV, the amyloid nucleation score is -0.025 ± 1.1. As for ESTWSFNSLYIDLIKVWSDV, the amyloid nucleation score is -0.889 ± 0.76.
